What was measured:
[1] = system: IL-1α signaling; experiment: IL-1 signaling reporter cell assay, IL-1α; format: cell-based; details: serial dilution of antibody
Procedure: (§1) HEK-Blue IL-1β cells (Invivogen, CA) were harvested and plated in technical duplicates at a density of 50,000 cells per well in a 96-well plate. IL1RAP antibodies, or a corresponding human IgG1 control antibody was added to the wells in a concentration range of […]. After incubating cells with antibodies for 30 minutes, IL-1β was added to a final concentration of 0.5 ng/ml, and the plate was incubated overnight. To examine whether any of the antibodies were able to induce IL-1R activation in the absence of IL-1β, samples were incubated with 10 μg/mL antibody without addition of the ligand. The following day, substrate was added to the supernatants, and samples were analyzed for absorbance at 620 nm.
In addition, serial dilution of IL1RAP antibodies was performed to determine EC50 against IL-1β and IL-1α (FIGS. 6B and 6C). Many of these antibodies, including 37E10_15B5 and 44E5_15C5 can block IL-1β and IL-1α signaling with subnanomolar EC50.

[2] = system: IL-1β signaling; experiment: IL-1 signaling reporter cell assay (HEK-Blue IL-1β cells), IL-1β; format: cell-based
Procedure: as §1

[3] = system: normal human dermal fibroblasts (NHDF); experiment: IL-6 and IL-8 production in NHDF stimulated with cytokine combo incl. IL-17A; format: cell-based; details: cytokine combo IL-1α/β, IL-36α/β/γ, antibodies 0-20 ug/ml, BFB759 0.5 ug/ml in combination
Procedure: (§2) Human NHDF cells were plated on 96-well, flat-bottom plates at 4,000 cells/well. […] For combination therapy, 0.5 ug/ml BFB759 was mixed with Secukinumab or Isotype control antibody at increasing concentrations (0-20 ug/ml, 5-fold dilution) and incubated with cells in duplicate for 45 minutes, prior to the addition of cytokine combo. The plates were then incubated overnight at 37° C., 5% CO2. 24 hours after treatment, supernatants were transferred and assayed for IL-6 and IL-8, as per manufacture's protocol (R&D Systems; Human IL-6 DuoSet ELISA, Human IL-8/CXCL8 DuoSet ELISA). The raw assay data were analyzed using GraphPad Prism 9 software to perform a non-linear regression.

[4] = system: TARC expression in PBMCs stimulated with HDM and IL-4; experiment: TARC in PBMCs treated by HDM and hIL-4; format: cell-based, human
Procedure: 0.2 million PBMCs in 100 ul medium (RPMI1640, 10% heat-inactivated FBS) were added to each well of 96 well cell culture plate. BFB759 at multiple concentrations in 50 ul medium was added to the wells. The cells were incubated in the incubator for 45 min. Then, 50 ul HDM solution (final concentration 10 ug/ml) was added to the wells. After 7 days incubation, the supernatant was transferred to a new 96 well plate, and used in TARC ELISA right away, or frozen in −80 C freezer for ELISA later. For the combination studies of BFB759 with other drugs, the single agent or combination of drugs were added to the PBMCs, incubated for 45 min, then HDM solution, or HDM and IL-4 or IL-13 solution were added to the wells. The assay was incubated for 7 days, and the supernatant was harvested for TARC ELISA.
Dupilumab is approved for treatment of AD (Atopic Dermatitis). It inhibits IL-4/13 signaling by blocking their binding to IL-4Ra. […] (FIG. 15)
In the data shown in FIG. 15, HDM was used at 10 ug/ml, IL-4 was used at […], antibodies were at three different concentrations as shown in the graph. Data shown are mean±s.d.

[5] = system: EOL-1; experiment: Flow cytometry binding to endogenous cell line EOL-1; format: cell-based, human; set-up: key to binding to EOL-1 by flow cytometry: (−): No binding; (+): Weak binding; (++): Moderate binding; (+++): Strong binding; details: primary antibody 1 ug/ml
Summary of the method: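 Live cells stained on ice for 30 minutes with primary antibody at 1 ug/ml in cold PBS/0.5% BSA, then washed and detected with Alexa Fluor 488 anti-human IgG (1:1000). Binding read by flow cytometry on endogenous IL1RAP-positive lines.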

[6] = system: normal human dermal fibroblasts (NHDF); experiment: IL-6 and IL-8 production in NHDF stimulated with cytokine combo incl. TNF-α; format: cell-based; details: cytokine combo IL-1α/β, IL-36α/β/γ, antibodies 0-20 ug/ml, BFB759 0.5 ug/ml in combination
Procedure: as §2, with “adalimumab” for “Secukinumab”, “isotype” for “Isotype”

B1: 37E10_15B5: human anti-IL1RAP antibody BFB759 (i.e., 37E10_15B5), VH SEQ ID NO: 64, VL SEQ ID NO: 68 (antibody, V domains shown)
VH: QVQLVESGGGVVQPGRSLRLSCAASGFTFRSHGMHWVRQAPGKGLEWVAVIWYDGSSEYYADSVKGRFTISRDNSKNTLYLQMNSLRAEDTAVYYCARENVYGSGWFFDYWGQGTLVTVSS
VL: EIVMTQSPATLSVSPGERASLSCRASQSVGSNLAWYQQRPGQAPRLLIFGASTRATGIPARFSGSRSGTEFTLTISSLQSEDFALYYCQQYNNWPPWTFGQGTKLEIK
EC50 against IL-1α [1]: subnanomolar
inhibition of IL1R1 / IL-1 signaling ([2]; HEK-Blue IL-1β cells, antibody 1-10 pg/ml, IL-1β 0.5 ng/ml): potent inhibition
EC50 against IL-1β ([2]; serial dilution of antibody, reporter assay): subnanomolar
IL-6 production [3]: dose-dependent decrease
IL-8 production [3]: dose-dependent decrease
inhibition of TARC expression in the HDM and IL-4 model ([4]; 1 or 0.1 ug/ml of BFB759, alone or combined with dupilumab): minimal inhibition
inhibition of TARC expression in the HDM and IL-4 model ([4]; HDM 10 ug/ml, IL-4 750 ug/ml, three antibody concentrations): partially inhibits
binding to EOL-1 by flow cytometry [5]: (+++)
IL-6 production [6]: dose-dependent decrease
IL-8 production [6]: dose-dependent decrease

— patent US20260008856A1, “METHODS OF TREATING DISEASE USING ANTI-IL1RAP ANTIBODIES AND ANTIBODY DRUG CONJUGATES” (Bluefin Biomedicine, Inc., priority 2022, published 2026)
